Test results: the supplement of paper PMC9170038

Key:
[1] = tested on: MS2 coat protein; assay: apparent KD of MS2 coat protein, switch ON state; designed switch direction (-1 OFF switch, 1 ON switch): 1; higher = weaker reporter binding; conditions: FMN input: 0 or 200 uM; Eterna round: R93 (includes R88 designs)
In short: (§1)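 Illumina sequencing clusters were used for on-chip transcription of designed RNA switches. Titration with SNAP-549-labelled MS2 coat protein followed, in twofold steps from 0.7 or 1.5 nM to 3 µM in 100 mM Tris-HCl pH 7.5, 80 mM KCl, 4 mM MgCl2, without or with constant ligand. Apparent KD is each design's median of fits to normalised cluster binding curves.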

[2] = tested on: MS2 coat protein; assay: apparent KD of MS2 coat protein, switch OFF state (with FMN for OFF switches, without FMN for ON switches); designed switch direction (-1 OFF switch, 1 ON switch): 1; higher = weaker reporter binding; conditions: FMN input: 0 or 200 uM; Eterna round: R93 (includes R88 designs)
In short: as §1

| Sequence | apparent KD of MS2 coat protein [1] [nM] | apparent KD of MS2 coat protein [2] [nM] |
| --- | --- | --- |
| GUCCAACAUGAGGAUCACCCAUGUGCAUGACACUGAGGAUAUGGGACUAAAGGUGCUGGACCAGAAGGCAGAAGAA [Diatquorbi] | 48.3 | 94.9 |
| AGGAAACAUGAGGAUCACCCAUGUAAAAAUAUGGGAGGAUAUACAAAGACGAAAGUCAAAGUAGAAGGCCUAAAAG [77%, Mat - Mod of Eli, 4] | 21.4 | 60.1 |
| CAUCACGCGCCUAAGGAUAUGUCUCACAAGACAUGAGGAUCACCCAUGUAGACUAAAUAAACGAUGCAGAAGGUGGAGCGCAUGC [Usrexe] | 76.4 | 149 |
| AGGUAACAUGAGGAUCACCCAUGUACCGAUAAUGCAGGAUAUCGACACGAAAAUACGUGUCGAGAAGGGCAUGAAA [SS1 MT 23] | 14.3 | 13.5 |
| AAAAGACAUGAGGAUCACCCAUGUGAAAACGUAGGAGGAUAUGUCGUGAAAAAAGACUUGGCAGAAGGCCUGUGUC [SS1 - 43] | 47 | 90.7 |
| AAGAAACAUGAGGAUCACCCAUGUAGAAAUAUGGGAGGAUAUACAAGGACGUAAGUCAAGGUAGAAGGCCUAAGAA [Mat - Same State 1 - Meechl mod - D135] | 26 | 97 |
| CGCGAACAUGAGGAUCACCCAUGUAAAUCGCAUGUAGGAUAUGGGAUACACAUUAAGAUCCCAGAAGGGCGGAAAA [Leeroner] | 23.8 | 23.5 |
| AUAAAAUAAAGUGAGGAUAUCUAUAAUAAAACAUGAGGAUCACCCAUGUUAAAAAAAAGAUCAUGGGAGAAGGCAUAAAAUAAAU [SS2 M 31] | 7.51 | 21.7 |
| CGGAGACAUGAGGAUCACCCAUGUGAGAAGAGGCGAGGAUAUCGAAAAAAAAAAAAAAAACGAGAAGGCGCGAGAU [salish99-SS1-013] | 34 | 36.2 |
| CGGAGACAUGAGGAUCACCCAUGUGAGAAGAGGCGAGGAUAUCGAAAGAAAGAAGAGAAACGAGAAGGCGCGAGAA [salish99-SS1-065] | 20.4 | 32.8 |
| AGAAAACAUGAGGAUCACCCAUGUUAGUGUCAUUAAGGAUAUAGGCUUAAGAAUCUGAGACUAGAAGGUGGUGCGC [Orbeus] | 21.9 | 30.8 |
| AAUAUACAUGAGGAUCACCCAUGUGAAAAUAUGGGAGGAUAUCGGAAAAAAAAAAAAAAACGAGAAGGCCCAAAAA [SS! 1 MT 13] | 20.8 | 119 |
| UCAAAACAUGAGGAUCACCCAUGUAGUCUAAAGCGAGGAUAUGGGUUUCUUUAAAGAGUACCAGAAGGCGCCAAAA [Entibi] | 23.3 | 60.9 |
| AAAUAAAGGACUGAGGAUAUACCACAUGAAACAUGAGGAUCACCCAUGUUAAAAAACAGAGGGUGGUAGAAGGCAGUCCACAAAC [Same State 2.5e ( so lets mod hyphema)] | 17.9 | 15.8 |
| AAAAGACAUGAGGAUCACCCAUGUAAAAACGUAGGAGGAUAUGUCUUGAAAAAAGACUUGACAGAAGGCCUGUGUC [SS1 - 53] | 23 | 34.6 |
| GAGGACAUAGGAUAGGAUAUAUGAAUAAUUACAUGAGGAUCACCCAUGUCCAUUUAUAUGGGAACAUAGAAGGGUUGUAGUUAUC [SameState2 Malc#34] | 1070 | 683 |
| AAAAGACAUGAGGAUCACCCAUGUGAAAACGUGCGAGGAUAUGUAUGGAAACUAUACUGUACAGAAGGCGCGUGUC [SS1 - 82] | 19.7 | 25.4 |
| GAAAAACAUGAGGAUCACCCAUGUGUAAACAAGGGAGGAUAUACAAAGACGUAAGUCAAAGUAGAAGGCCUAAAAG [Garnet 38] | 25.6 | 47.1 |
| AAAAAACAUGAGGAUCACCCAUGUAAAAAAAUGGGAGGAUAUACAAAGACGAAAGUCAAAGUAGAAGGCCUGAAAA [same state 4] | 29.8 | 105 |
